Patent US20190300590A1 (PROTAGONIST THERAPEUTICS, published 2019)
*1 amine or outer side, *2 acyl side, *3 side chain or, on linkers, in order; H or OH if unused. Bridges are numbered along the chain shown (N, C = ends). Primed or numbered codes have the meaning given here. [ ]: non-standard residue; d: D form. Phe(4-(2-acetylaminoethoxy))″ = 4-(2-acetylaminoethoxy)phenylalanine, CC(=O)NCCOc1ccc(C[C@H](N[*:1])C(=O)[*:2])cc1; 2Nal = N[C@@H](Cc1ccc2ccccc2c1)C(=O)O; AEF = NCCOc1ccc(C[C@H](N)C(=O)O)cc1; αMeL = CC(C)C[C@](C)(N)C(=O)O; Pen = CC(C)(S)[C@H](N)C(=O)O; αMeK = C[C@](N)(CCCCN)C(=O)O; Abu = CC[C@H](N)C(=O)O; Dap = NC[C@H](N)C(=O)O; Aib = CC(C)(N)C(=O)O; AEA = NCCOCC(=O)O

T1: IL-23R on DB cells (human, UniProt Q5VWK5 24-629)
T1 sequence (looked up): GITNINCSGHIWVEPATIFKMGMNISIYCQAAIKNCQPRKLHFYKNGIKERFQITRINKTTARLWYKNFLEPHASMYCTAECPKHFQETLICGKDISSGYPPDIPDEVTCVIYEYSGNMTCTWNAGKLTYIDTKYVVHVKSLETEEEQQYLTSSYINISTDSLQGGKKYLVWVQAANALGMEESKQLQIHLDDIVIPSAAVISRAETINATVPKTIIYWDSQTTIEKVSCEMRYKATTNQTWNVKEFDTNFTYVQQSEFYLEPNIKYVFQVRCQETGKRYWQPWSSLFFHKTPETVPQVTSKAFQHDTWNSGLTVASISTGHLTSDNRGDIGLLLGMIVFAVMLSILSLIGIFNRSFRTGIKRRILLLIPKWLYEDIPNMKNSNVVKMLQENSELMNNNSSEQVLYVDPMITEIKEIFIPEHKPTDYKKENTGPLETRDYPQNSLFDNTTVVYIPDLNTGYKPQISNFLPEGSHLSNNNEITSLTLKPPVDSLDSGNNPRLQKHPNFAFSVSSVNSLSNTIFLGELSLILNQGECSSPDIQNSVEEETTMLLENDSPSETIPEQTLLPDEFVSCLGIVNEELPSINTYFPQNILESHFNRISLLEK

T2: IL-23R on human cells (IL-23R-expressing DB cells; human NK cells) (human, UniProt Q5VWK5 24-629)
T2 sequence (looked up): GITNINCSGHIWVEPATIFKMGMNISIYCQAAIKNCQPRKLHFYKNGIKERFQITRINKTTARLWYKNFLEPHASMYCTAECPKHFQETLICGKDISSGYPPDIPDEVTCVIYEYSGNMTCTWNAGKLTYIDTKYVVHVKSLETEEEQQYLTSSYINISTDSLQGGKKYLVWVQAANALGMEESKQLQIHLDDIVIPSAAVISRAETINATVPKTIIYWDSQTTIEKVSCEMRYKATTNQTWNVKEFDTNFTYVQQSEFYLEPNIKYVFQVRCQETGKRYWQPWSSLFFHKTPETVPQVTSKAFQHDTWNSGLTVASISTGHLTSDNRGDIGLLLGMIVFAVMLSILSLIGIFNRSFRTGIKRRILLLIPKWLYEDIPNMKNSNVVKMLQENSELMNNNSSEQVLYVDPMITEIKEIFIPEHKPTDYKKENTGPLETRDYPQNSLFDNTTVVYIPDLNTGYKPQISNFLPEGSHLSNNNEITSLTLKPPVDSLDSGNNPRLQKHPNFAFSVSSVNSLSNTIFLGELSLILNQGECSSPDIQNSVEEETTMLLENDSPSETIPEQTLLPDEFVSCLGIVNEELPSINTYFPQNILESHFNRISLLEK

T3: IL23R_huFC (human, UniProt Q5VWK5 24-353)
T3 sequence (looked up): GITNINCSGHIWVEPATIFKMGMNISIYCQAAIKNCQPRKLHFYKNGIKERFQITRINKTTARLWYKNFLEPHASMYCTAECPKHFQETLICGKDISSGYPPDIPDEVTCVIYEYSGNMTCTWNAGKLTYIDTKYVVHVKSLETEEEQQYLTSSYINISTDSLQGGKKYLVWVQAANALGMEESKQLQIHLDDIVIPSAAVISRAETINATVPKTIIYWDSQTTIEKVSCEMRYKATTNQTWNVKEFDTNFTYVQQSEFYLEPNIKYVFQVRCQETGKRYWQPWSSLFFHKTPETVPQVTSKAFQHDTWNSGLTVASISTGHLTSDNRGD


Assays:
IL-23R on DB cells = target: T1, IL-23R on DB cells; assay: cell-based or functional assay
[1] = target: T2, IL-23R on human cells …; assay: cell-based or functional assay
IL23R_huFC = target: T3, IL23R_huFC; assay: human ELISA vs IL-23

pStat3 HTRF IC50 (IL-23R on DB cells) [nM]	pStat3 HTRF IC50 [1] [nM]	IC50 (IL23R_huFC) [nM]	Binder
< 10			XNTWQXFXLKNA (Ac; Pen-Pen disulfide; Phe(4-OMe); 2-Nal; hLeu; Lys(Ac); βAla; NH2) [Ac-[Pen]-NTWQ-[Pen]-[Phe(4-OMe)]-[2-Nal]-[hLeu]-[Lys(Ac)]-N-[βAla]-NH2]
< 10			XNTWQXFXXKNN (Ac; Pen-Pen disulfide; Phe(4-OMe); 2-Nal; Aib; Lys(Ac); NH2) [Ac-[Pen]-NTWQ-[Pen]-[Phe(4-OMe)]-[2-Nal]-[Aib]-[Lys(Ac)]-NN-NH2]
< 10			XQTWQXFXXKNN (Ac; Pen-Pen disulfide; Phe(4-OMe); 2-Nal; Aib; Lys(Ac); NH2) [Ac-[Pen]-QTWQ-[Pen]-[Phe(4-OMe)]-[2-Nal]-[Aib]-[Lys(Ac)]-NN-NH2]
< 10			XNTWQXFXXKNQ (Ac; Pen-Pen disulfide; Phe[4-(2-aminoethoxy)]; 2-Nal; Aib; Lys(Ac); NH2) [Ac-[Pen]-NTWQ-[Pen]-[Phe[4-(2-aminoethoxy)]-[2-Nal]-[Aib]-[Lys(Ac)]-NQ-NH2]
< 10			XQTWQXFXXKNN (Ac; Pen-Pen disulfide; Phe[4-(2-aminoethoxy)]; 2-Nal; Aib; Lys(Ac); NH2) [Ac-[Pen]-QTWQ-[Pen]-[Phe[4-(2-aminoethoxy)]-[2-Nal]-Aib-[Lys(Ac)]-NN-NH2]
< 10			Ac-[Pen][Dap]TWQ[Pen][AEF][2Nal][αMeK]ENG-NH2 (disulfide 1-6 (inferred)) [Ac-[Pen]-[Dap]-TWQ-[Pen]-[Phe[4-(2-aminoethoxy)]-[2-Nal]-[α-MeLys]-ENG-NH2]
< 10			XNTWQXFXLKNA (Ac; Pen-Pen disulfide; Phe[4-(2-aminoethoxy)]; 2-Nal; hLeu; Lys(Ac); βAla; NH2) [Ac-[Pen]-NTWQ-[Pen]-[Phe[4-(2-aminoethoxy)]-[2-Nal]-[hLeu]-[Lys(Ac)]-N-[βAla]-NH2]
	< 10	< 10	XQTWQCFXXKNG (as bracketed in name; thioether cyclo) [Ac-Cyclo-[[Abu]-QTWQC]-[Phe[4-(2-aminoethoxy)]]-[2-Nal]-[α-Me-Orn]-[Lys(Ac)]-NG-NH2]
	< 10	< 10	Ac-[Abu]QTWQC[AEF][2Nal][Aib]K(Ac)NG-NH2 (thioether 1-6) [Ac-Cyclo-[[Abu]-QTWQC]-[Phe[4-(2-aminoethoxy)]]-[2-Nal]-[Aib]-[Lys(Ac)]-NG-NH2]
< 10			XNTWQXFXXKNN (Ac; Pen-Pen disulfide; Phe[4-(2-aminoethoxy)]; 2-Nal; Aib; Lys(Ac); NH2) [Ac-[Pen]-NTWQ-[Pen]-[Phe[4-(2-aminoethoxy)]-[2-Nal]-[Aib]-[Lys(Ac)]-NN-NH2]
	< 10	< 10	Ac-[Abu]QTWQC[AEF]W[αMeL]ENG-NH2 (thioether 1-6) [Ac-Cyclo-[[Abu]-QTWQC]-[Phe[4-(2-aminoethoxy)]]-W-[α-Me-Leu]-ENG-NH2]

The next lines start with the binder.

Binder	pStat3 HTRF IC50 (IL-23R on DB cells) [nM]	pStat3 HTRF IC50 [1] [nM]	IC50 (IL23R_huFC) [nM]
Ac-E[Pen]QTWQ[Pen][AEF][2Nal][Aib]K(Ac)NN-NH2 (disulfide 2-7; SMILES CC(=O)NCCCC[C@H](NC(=O)C(C)(C)NC(=O)[C@H](Cc1ccc2ccccc2c1)NC(=O)[C@H](Cc1ccc(OCCN)cc1)NC(=O)[C@H]1NC(=O)[C@H](CCC(N)=O)NC(=O)[C@H](Cc2c[nH]c3ccccc23)NC(=O)[C@H]([C@@H](C)O)NC(=O)[C@H](CCC(N)=O)NC(=O)[C@@H](NC(=O)[C@H](CCC(=O)O)NC(C)=O)C(C)(C)SSC1(C)C)C(=O)N[C@@H](CC(N)=O)C(=O)N[C@@H](CC(N)=O)C(N)=O) [Ac-E-[Pen]-QTWQ-[Pen]-[Phe[4-(2-aminoethoxy)]-[2-Nal]-[Aib]-[Lys(Ac)]-NN-NH2]	< 10		
Ac-[Pen][Dap](Ac)TWQ[Pen][Phe(4-(2-acetylaminoethoxy))″][2Nal][αMeK](Ac)ENG-NH2 (disulfide 1-6 (inferred)) [Ac-[Pen]-Dap(Ac)TWQ-[Pen]-[Phe[4-(2-acetylaminoethoxy)]-[2-Nal]-[α-MeLys(Ac)]-ENG-NH2]	< 10		
Ac-[Pen]TTWQ[Pen][AEF][2Nal][Aib]K(Ac)NQ-NH2 (disulfide 1-6 (inferred)) [Ac-[Pen]-TTWQ-[Pen]-[Phe[4-(2-aminoethoxy)]-[2-Nal]-[Aib]-[Lys(Ac)]-NQ-NH2]	< 10		
Ac-[Pen]QTWQ[Pen][2Nal][2Nal][αMeK]ENG-NH2 (disulfide 1-6; SMILES CC(=O)N[C@@H]1C(=O)N[C@@H](CCC(N)=O)C(=O)N[C@@H]([C@@H](C)O)C(=O)N[C@@H](Cc2c[nH]c3ccccc23)C(=O)N[C@@H](CCC(N)=O)C(=O)N[C@H](C(=O)N[C@@H](Cc2ccc3ccccc3c2)C(=O)N[C@@H](Cc2ccc3ccccc3c2)C(=O)N[C@@](C)(CCCCN)C(=O)N[C@@H](CCC(=O)O)C(=O)N[C@@H](CC(N)=O)C(=O)NCC(N)=O)C(C)(C)SSC1(C)C) [Ac-[Pen]-QTWQ-[Pen]-[2-Nal]-[2-Nal]-[α-MeLys]-ENG-NH2]	10 to 25		
XNTWQXFXXENN (Ac; Pen-Pen disulfide; Phe(4-OMe); 2-Nal; Aib; NH2) [Ac-[Pen]-NTWQ-[Pen]-[Phe(4-OMe)]-[2-Nal]-[Aib]-ENN-NH2]	< 10		
XNTWQXFXXKNA (Ac; Pen-Pen disulfide; Phe[4-(2-aminoethoxy)]; 2-Nal; Aib; Lys(Ac); βAla; NH2) [Ac-[Pen]-NTWQ-[Pen]-[Phe[4-(2-aminoethoxy)]-[2-Nal]-[Aib]-[Lys(Ac)]-N-[βAla]-NH2]	< 10		
Ac-[Abu]QTWQC[AEF][2Nal][αMeK]K(Ac)NG[AEA][dK]-NH2 (thioether 1-6) [Ac-Cyclo-[[Abu]-QTWQC]-[Phe[4-(2-aminoethoxy)]]-[2-Nal][α-MeLys]-[Lys(Ac)]--NG-[AEA]-[(D)Lys]-NH2]		< 10	< 10
Ac-[Abu]QTWQC[AEF][2Nal][Aib]KNG-NH2 (thioether 1-6) [Ac-Cyclo-[[Abu]-QTWQC]-[Phe[4-(2-aminoethoxy)]]-[2-Nal]-[Aib]-KNG-NH2]		< 10	< 10
XNTWQXFXXKNA (Ac; Pen-Pen disulfide; Phe[4-(2-aminoethoxy)]; 2-Nal; Aib; Lys(Ac); NH2) [Ac-[Pen]-NTWQ-[Pen]-[Phe[4-(2-aminoethoxy)]-[2-Nal]-[Aib]-[Lys(Ac)]-NA-NH2]	< 10		
